Experimental data from PMC4360655.

What was measured:
P15381 = experiment: FRET or BRET; living tsA-201 cells expressing CaV1.2-EGFP (donor) and CaV1.2-tagRFP (acceptor), confocal; FRETr = RFPg/GFPg; followed during flash photolysis of caged Ca2+ at −80 mV, during a 500-ms depolarization from −80 to +10 mV (10 mM EGTA in the pipette), and at 0-5000 nM Ca2+ with 1 μM …
[1] = biological target: CaV1.2 channel pore-forming subunit (α1c) tagged at its C-terminus with a half of split Venus (CaV1.2-VN155(I152L) and CaV1.2-VC155) (rabbit) (UniProt P15381)

CaV1.2 channel pore-forming subunit (α1c) tagged at its C-terminus with EGFP or tagRFP (CaV1.2-EGFP and CaV1.2-tagRFP)
time for FRETr to decay to 50% of the peak (T50%), with m5 (P15381): 0.63 ± 0.23 s for FRETr

CaV1.2 channel pore-forming subunit (α1c) tagged at its C-terminus with a half of split Venus (CaV1.2-VN155(I152L) and CaV1.2-VC155) (from UniProt P15381 1-2171) (natural protein)
CaV1.2 sparklet density after against before the depolarization that fuses CaV1.2-VN and CaV1.2-VC [1]: 10 fold
